This note sets out measurements from patent US20140079713A1.

The assay concerns the target PTCH1-GFP (mouse) (UniProt Q61115). In words: cell surface binding of BOC-Fc proteins to COS7 cells expressing PTCH1-GFP, anti-Fc HRP.
Sequence of UniProt Q61115 (Q61115 whole entry): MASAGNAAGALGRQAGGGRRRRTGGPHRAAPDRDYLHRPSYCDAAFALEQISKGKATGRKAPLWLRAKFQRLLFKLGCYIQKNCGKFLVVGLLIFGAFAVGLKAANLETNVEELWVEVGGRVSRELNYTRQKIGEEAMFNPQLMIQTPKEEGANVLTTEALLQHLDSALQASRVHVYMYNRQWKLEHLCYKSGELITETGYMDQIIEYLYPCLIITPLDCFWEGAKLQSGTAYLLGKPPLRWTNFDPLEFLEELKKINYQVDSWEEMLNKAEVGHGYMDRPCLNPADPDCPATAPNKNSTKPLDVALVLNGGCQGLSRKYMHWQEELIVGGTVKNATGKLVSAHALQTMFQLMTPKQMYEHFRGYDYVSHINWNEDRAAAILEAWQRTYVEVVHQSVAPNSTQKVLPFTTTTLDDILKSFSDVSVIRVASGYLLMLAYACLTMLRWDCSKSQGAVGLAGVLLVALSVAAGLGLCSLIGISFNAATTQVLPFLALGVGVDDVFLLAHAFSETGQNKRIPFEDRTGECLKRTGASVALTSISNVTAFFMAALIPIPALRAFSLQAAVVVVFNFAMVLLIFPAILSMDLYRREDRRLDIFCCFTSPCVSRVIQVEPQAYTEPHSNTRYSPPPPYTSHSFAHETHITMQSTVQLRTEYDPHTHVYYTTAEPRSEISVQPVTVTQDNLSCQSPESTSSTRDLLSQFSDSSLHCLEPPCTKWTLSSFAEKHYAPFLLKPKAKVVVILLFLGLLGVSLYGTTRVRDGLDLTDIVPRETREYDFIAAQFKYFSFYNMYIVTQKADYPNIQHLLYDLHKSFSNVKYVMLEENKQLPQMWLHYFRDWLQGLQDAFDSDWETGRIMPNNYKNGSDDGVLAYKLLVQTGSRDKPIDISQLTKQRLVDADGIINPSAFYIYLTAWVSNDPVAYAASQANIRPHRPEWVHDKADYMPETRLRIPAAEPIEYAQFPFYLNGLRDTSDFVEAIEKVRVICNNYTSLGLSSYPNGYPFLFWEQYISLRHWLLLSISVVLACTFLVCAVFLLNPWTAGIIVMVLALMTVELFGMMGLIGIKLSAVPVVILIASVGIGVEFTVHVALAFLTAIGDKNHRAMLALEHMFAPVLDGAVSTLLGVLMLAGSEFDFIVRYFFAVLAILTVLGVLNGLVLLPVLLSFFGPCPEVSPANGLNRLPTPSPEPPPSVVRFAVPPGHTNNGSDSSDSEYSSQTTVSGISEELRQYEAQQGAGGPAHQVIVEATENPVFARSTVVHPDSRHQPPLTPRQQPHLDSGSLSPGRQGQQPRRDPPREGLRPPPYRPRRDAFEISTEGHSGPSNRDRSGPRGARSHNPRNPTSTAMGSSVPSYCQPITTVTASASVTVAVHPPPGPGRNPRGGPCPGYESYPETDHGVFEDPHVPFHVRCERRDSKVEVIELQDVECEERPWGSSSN

The substance “BOC-Fc construct containing the FNIIIb domain alone (Fc fusion)” displayed a binding level relative to BOC ecto-Fc of 60%.
With “BOC-Fc construct containing the FNIIIa domain alone (Fc fusion)” the figure was 60%.
